From patent publication US20040171000A1

Molecular target: human telomerase (active telomerase from HeLa cell nuclear extract; catalytic subunit hTERT) (human) (UniProt O14746)
Experiment: cell-based or functional assay

Sequence of human telomerase (active telomerase from HeLa cell nuclear extract; catalytic subunit hTERT) (human) (O14746 whole entry): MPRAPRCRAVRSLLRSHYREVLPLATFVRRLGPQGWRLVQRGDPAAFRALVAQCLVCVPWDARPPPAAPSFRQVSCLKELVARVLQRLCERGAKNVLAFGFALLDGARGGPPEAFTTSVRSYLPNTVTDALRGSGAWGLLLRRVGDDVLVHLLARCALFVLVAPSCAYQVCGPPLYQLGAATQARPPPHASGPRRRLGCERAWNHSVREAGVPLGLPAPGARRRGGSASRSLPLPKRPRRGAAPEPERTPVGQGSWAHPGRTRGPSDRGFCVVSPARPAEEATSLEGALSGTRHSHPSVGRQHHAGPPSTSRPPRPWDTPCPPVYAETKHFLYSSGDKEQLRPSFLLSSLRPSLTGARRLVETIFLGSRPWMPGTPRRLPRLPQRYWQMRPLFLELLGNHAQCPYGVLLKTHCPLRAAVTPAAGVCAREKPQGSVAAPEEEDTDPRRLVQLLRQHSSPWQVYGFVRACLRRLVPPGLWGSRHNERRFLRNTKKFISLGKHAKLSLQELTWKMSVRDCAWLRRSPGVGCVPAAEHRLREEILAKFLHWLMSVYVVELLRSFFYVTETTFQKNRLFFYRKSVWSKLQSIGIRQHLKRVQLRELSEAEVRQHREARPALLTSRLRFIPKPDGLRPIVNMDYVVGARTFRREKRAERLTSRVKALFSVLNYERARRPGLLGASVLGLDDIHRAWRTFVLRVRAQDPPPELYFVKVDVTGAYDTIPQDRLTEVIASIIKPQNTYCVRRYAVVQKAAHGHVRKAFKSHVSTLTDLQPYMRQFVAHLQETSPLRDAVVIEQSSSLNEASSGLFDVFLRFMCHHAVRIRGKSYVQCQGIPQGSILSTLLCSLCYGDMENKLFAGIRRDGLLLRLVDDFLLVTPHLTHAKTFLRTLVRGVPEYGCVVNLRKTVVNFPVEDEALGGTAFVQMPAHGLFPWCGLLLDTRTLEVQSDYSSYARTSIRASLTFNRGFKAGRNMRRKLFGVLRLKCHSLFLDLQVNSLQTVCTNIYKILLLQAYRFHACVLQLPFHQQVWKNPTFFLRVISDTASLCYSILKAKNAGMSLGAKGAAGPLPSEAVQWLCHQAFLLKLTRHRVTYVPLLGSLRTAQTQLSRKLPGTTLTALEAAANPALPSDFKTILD

With “EST1-0732 (human EST1 protein of SEQ ID No 2) (from UniProt Q86US8 1-1419)” as the substance, how does the telomerase activity immunoprecipitated by antibodies to SEQ ID No 7 read?
Its telomerase activity immunoprecipitated by antibodies to SEQ ID No 7 is 70%.
